Results from article PMC3985065 (Protein expression and purification, 2014).

Legend:
[1] = target: T1, mouse glycine N-acyltransferase (mGLYAT) (Mus musculus, UniProt Q91XE0); assay: DTNB assay of CoA-SH release, […] benzoyl-CoA and […] glycine; assay type: biochemical
T1 sequence (Q91XE0 1-296): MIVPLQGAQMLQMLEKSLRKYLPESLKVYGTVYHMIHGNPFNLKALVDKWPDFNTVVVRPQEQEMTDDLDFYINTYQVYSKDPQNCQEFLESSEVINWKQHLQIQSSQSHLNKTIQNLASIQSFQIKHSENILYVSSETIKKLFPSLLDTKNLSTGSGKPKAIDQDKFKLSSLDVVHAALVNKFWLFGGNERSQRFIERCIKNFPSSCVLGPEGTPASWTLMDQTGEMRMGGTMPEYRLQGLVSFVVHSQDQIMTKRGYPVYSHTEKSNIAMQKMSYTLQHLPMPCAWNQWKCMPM

purified protein [2] = substrate: CC(=O)SCCNC(=O)CCNC(=O)[C@H](O)C(C)(C)COP(=O)(O)OP(=O)(O)OC[C@H]1O[C@@H](n2cnc3c(N)ncnc32)[C@H](O)[C@@H]1OP(=O)(O)O; assay: purified protein; settings: amino acceptor substrate
purified protein [3] = substrate: CC(C)(COP(=O)(O)OP(=O)(O)OC[C@H]1O[C@@H](n2cnc3c(N)ncnc32)[C@H](O)[C@@H]1OP(=O)(O)O)[C@@H](O)C(=O)NCCC(=O)NCCSC(=O)c1ccccc1; assay: purified protein; assay type: biochemical, Mus musculus; settings: amino acceptor substrate
purified protein [4] = substrate: NCC(=O)O; assay: purified protein; assay type: biochemical, Mus musculus; settings: benzoyl-CoA (co-substrate) amino donor substrate
purified protein [5] = substrate: CCCCCC(=O)SCCNC(=O)CCNC(=O)[C@H](O)C(C)(C)COP(=O)(O)OP(=O)(O)OC[C@H]1O[C@@H](n2cnc3c(N)ncnc32)[C@H](O)[C@@H]1OP(=O)(O)O; assay: purified protein; assay type: biochemical, Mus musculus; settings: amino acceptor substrate
purified protein [6] = substrate: COC(=O)CN; assay: purified protein; assay type: biochemical, Mus musculus; settings: benzoyl-CoA (co-substrate) amino donor substrate
purified protein [7] = substrate: CCCC(=O)SCCNC(=O)CCNC(=O)[C@H](O)C(C)(C)COP(=O)(O)OP(=O)(O)OC[C@H]1O[C@@H](n2cnc3c(N)ncnc32)[C@H](O)[C@@H]1OP(=O)(O)O; assay: purified protein; assay type: biochemical, Mus musculus; settings: amino acceptor substrate
purified protein [8] = substrate: CCOC(=O)CN; assay: purified protein; assay type: biochemical, Mus musculus; settings: benzoyl-CoA (co-substrate) amino donor substrate

`CCCCCCCC/C=C\CCCCCCCC(=O)SCCNC(=O)CCNC(=O)[C@H](O)C(C)(C)COP(=O)(O)OP(=O)(O)OC[C@H]1O[C@@H](n2cnc3c(N)ncnc32)[C@H](O)[C@@H]1OP(=O)(O)O` [Oleoyl-CoA] showed an IC50 [1] of 0.021 ± 0.0034 mM.

Molecule `O=C(O)CO` [Glycolic acid] has an IC50 [1] of 58 ± 4.9 mM.

B1: mouse glycine N-acyltransferase (mGLYAT) (Mus musculus) (protein)
chain: T1 sequence (Q91XE0 1-296)
B1 was tested, and the Km (purified protein [2]) was 209 ± 43 µM, the kcat (purified protein [2]) was 0.8 s⁻¹ and the kcat/Km (purified protein [2]) was 3800 M⁻¹ s⁻¹. For the same molecule, the Km (purified protein [3]) was 9.4 ± 14 µM, the kcat (purified protein [3]) was 4.2 ± 0.25 s⁻¹ and the kcat/Km (purified protein [3]) was 450000 ± 27000 M⁻¹ s⁻¹. For the same molecule, the Km (purified protein [4]) was 6100 ± 1200 µM, the kcat (purified protein [4]) was 3.2 ± 0.12 s⁻¹ and the kcat/Km (purified protein [4]) was 520 ± 20 M⁻¹ s⁻¹. It also gave a Km (purified protein [5]) of 45 ± 3.0 µM, a kcat (purified protein [5]) of 4.6 ± 0.085 s⁻¹ and a kcat/Km (purified protein [5]) of 100000 ± 1900 M⁻¹ s⁻¹. The Km (purified protein [6]) was 29000 ± 9100 µM, the kcat (purified protein [6]) was 1 ± 0.12 s⁻¹ and the kcat/Km (purified protein [6]) was 35 ± 4.1 M⁻¹ s⁻¹. The Km (purified protein [7]) was 52 ± 7.9 µM, the kcat (purified protein [7]) was 15 ± 0.43 s⁻¹ and the kcat/Km (purified protein [7]) was 290000 ± 8200 M⁻¹ s⁻¹. The Km (purified protein [8]) was 9700 ± 1700 µM, the kcat (purified protein [8]) was 0.57 ± 0.023 s⁻¹ and the kcat/Km (purified protein [8]) was 59 ± 2.3 M⁻¹ s⁻¹.
